Each block holds one molecule with its values, some of them ahead of it.
Key:
[1] = target: CD22 (human) (UniProt P20273); assay: cell-based or functional assay
[2] = target: T1, CD74 (human, UniProt P04233 1-296); assay: cell-based or functional assay
T1 construct: whole, on cells; Endogenous antigen of human tumor cell lines; measured on the surface or, after permeabilization, surface and cytoplasmic; also called invariant chain; Ii
T1 sequence (looked up): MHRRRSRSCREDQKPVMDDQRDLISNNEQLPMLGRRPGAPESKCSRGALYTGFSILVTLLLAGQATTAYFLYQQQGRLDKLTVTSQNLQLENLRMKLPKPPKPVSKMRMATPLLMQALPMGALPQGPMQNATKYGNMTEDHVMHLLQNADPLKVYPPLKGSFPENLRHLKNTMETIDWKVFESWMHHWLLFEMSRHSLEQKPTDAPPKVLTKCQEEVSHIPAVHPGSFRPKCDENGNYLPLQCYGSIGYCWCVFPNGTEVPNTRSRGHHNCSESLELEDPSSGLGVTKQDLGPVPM

[3] = target: T1, CD74; assay: cell binding to antigen-positive cells (cell line not stated)
[4] = target: Human trophoblast cell-surface antigen (TROP-2) (human) (UniProt P09758); assay: cell binding assay on TROP-2-expressing cells
[5] = target: Human trophoblast cell-surface antigen (TROP-2) (human) (UniProt P09758); assay: cell-based or functional assay
[6] = target: Human trophoblast cell-surface antigen (TROP-2) (human) (UniProt P09758); assay: flow cytometry, surface of Capan-1 cells
[7] = target: Human trophoblast cell-surface antigen (TROP-2) (human) (UniProt P09758); assay: FACS on BxPC-3 cells; background 3.1
[8] = target: Human trophoblast cell-surface antigen (TROP-2) (human) (UniProt P09758); assay: FACS on COLO 205 cells; background 4.5
[9] = target: Human trophoblast cell-surface antigen (TROP-2) (human) (UniProt P09758); assay: FACS on BxPC-3 cells
[10] = target: Human trophoblast cell-surface antigen (TROP-2) (human) (UniProt P09758); assay: FACS on Capan-1 cells; background 5.0
[11] = target: Human trophoblast cell-surface antigen (TROP-2) (human) (UniProt P09758); assay: FACS on Calu-3 cells
[12] = target: Human trophoblast cell-surface antigen (TROP-2) (human) (UniProt P09758); assay: FACS on SK-MES-1 cells
[13] = target: Human trophoblast cell-surface antigen (TROP-2) (human) (UniProt P09758); assay: FACS on PC-3 cells
[14] = target: Human trophoblast cell-surface antigen (TROP-2) (human) (UniProt P09758); assay: FACS on Calu-3 cells; background 4.7
[15] = target: Human trophoblast cell-surface antigen (TROP-2) (human) (UniProt P09758); assay: FACS on Capan-1 cells
[16] = target: Human trophoblast cell-surface antigen (TROP-2) (human) (UniProt P09758); assay: flow cytometry, surface of NCI-N87 cells
[17] = target: Human trophoblast cell-surface antigen (TROP-2) (human) (UniProt P09758); assay: FACS on PC-3 cells; background 5.5
[18] = target: Human trophoblast cell-surface antigen (TROP-2) (human) (UniProt P09758); assay: FACS on SK-MES-1 cells; background 3.5
[19] = target: Human trophoblast cell-surface antigen (TROP-2) (human) (UniProt P09758); assay: FACS on COLO 205 cells
[20] = target: T1, CD74; assay: flow cytometry, surface and cytoplasmic CD74 in permeabilized Raji cells
[21] = target: T1, CD74; assay: flow cytometry, surface and cytoplasmic CD74 in permeabilized A-375 cells
[22] = target: T1, CD74; assay: flow cytometry, surface CD74 on Hs746T cells
[23] = target: T1, CD74; assay: flow cytometry, surface CD74 on HuH-7 cells
[24] = target: T1, CD74; assay: flow cytometry, surface CD74 on Capan-1 cells
[25] = target: T1, CD74; assay: flow cytometry, surface and cytoplasmic CD74 in permeabilized Hs746T cells
[26] = target: T1, CD74; assay: flow cytometry, surface CD74 on A-375 cells
[27] = target: T1, CD74; assay: flow cytometry, surface and cytoplasmic CD74 in permeabilized Hep-G2 cells
[28] = target: T1, CD74; assay: flow cytometry, surface and cytoplasmic CD74 in permeabilized HuH-7 cells
[29] = target: T1, CD74; assay: flow cytometry, surface CD74 on Raji cells
[30] = target: T1, CD74; assay: flow cytometry, surface and cytoplasmic CD74 in permeabilized NCI-N87 cells
[31] = target: T1, CD74; assay: flow cytometry, surface CD74 on Hep-G2 cells
[32] = target: T1, CD74; assay: flow cytometry, surface CD74 on NCI-N87 cells
[33] = target: T1, CD74; assay: flow cytometry, surface and cytoplasmic CD74 in permeabilized Capan-1 cells

Chain of Human trophoblast cell-surface antigen (TROP-2) (human) (P09758 27-323): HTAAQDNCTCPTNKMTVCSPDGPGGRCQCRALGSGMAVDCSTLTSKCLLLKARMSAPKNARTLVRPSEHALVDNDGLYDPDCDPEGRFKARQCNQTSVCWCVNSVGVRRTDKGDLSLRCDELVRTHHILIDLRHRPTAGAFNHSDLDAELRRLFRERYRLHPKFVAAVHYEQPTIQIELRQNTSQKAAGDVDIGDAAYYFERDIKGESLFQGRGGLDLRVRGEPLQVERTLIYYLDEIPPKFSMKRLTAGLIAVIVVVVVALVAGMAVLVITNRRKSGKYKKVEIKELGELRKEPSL

Molecule: Emab-CL2E-SN-38 (antibody)
in vitro cytotoxicity (MTS assay), potency against the nonbinding control conjugate [1]: 2 fold

Kd [3]: 0.8 nM
Molecule: milatuzumab-CL2E-SN-38 (antibody)
in vitro cytotoxicity (MTS assay), potency against free SN-38 in 4 solid tumor cell lines (fold lower potency than free SN-38) [2]: 7 to 16

Kd [3]: 0.59 nM
Molecule: milatuzumab-CL2A-SN-38 (antibody)

Kd [4]: 1.2 nM
B1: hRS7-CL2A-SN-38 (antibody, INN chains, looked up, V domains shown, part only)
VH: QVQLQQSGSELKKPGASVKVSCKASGYTFTNYGMNWVKQAPGQGLKWMGWINTYTGEPTYTDDFKGRFAFSLDTSVSTAYLQISSLKADDTAVYFCARGGFGSSYWYFDVWGQGSLVTVSS
VL: DIQLTQSPSSLSASVGDRVSITCKASQDVSIAVAWYQQKPGKAPKLLIYSASYRYTGVPDRFSGSGSGTDFTLTISSLQPEDFAVYYCQQHYITPLTFGAGTKVEIK
modifications: SN-38 via CL2A linker (sacituzumab govitecan)
ADC/free SN-38 ratio (IC50, in vitro cytotoxicity), Calu-3 [5]: 1.39
ADC/free SN-38 ratio (IC50, in vitro cytotoxicity), SK-MES-1 [5]: 2.69

Kd [4]: 1.2 nM
B2: hRS7-CL2-SN-38 (antibody, INN chains, looked up, V domains shown, part only)
VH: B1 VH
VL: B1 VL
modifications: SN-38 via CL2 linker

MFI [6]: 237
Median fluorescence [7]: 26.4
Median fluorescence [8]: 142
Percent positive [9]: 98.3%
Median fluorescence [10]: 100
Percent positive [11]: 99.6%
Percent positive [12]: 91.2%
Percent positive [13]: 73.6%
Median fluorescence [14]: 282
Percent positive [15]: 94.2%
MFI [16]: 795
Median fluorescence [17]: 46.2
Median fluorescence [18]: 44
Percent positive [19]: 99.5%
B3: Humanized RS7 IgG (antibody, INN chains, looked up, V domains shown, part only)
VH: B1 VH
VL: B1 VL
modifications: IgG1

MFI Ratio hLL1:bkgd [20]: 28.6
MFI Ratio hLL1:bkgd [21]: 30.8
MFI Ratio hLL1:bkgd [22]: 2.1
MFI Ratio hLL1:bkgd [23]: 1.6
MFI Ratio hLL1:bkgd [24]: 1.8
MFI Ratio hLL1:bkgd [25]: 28.8
MFI Ratio hLL1:bkgd [26]: 5.3
Kd [3]: 0.77 nM
MFI Ratio hLL1:bkgd [27]: 31.2
MFI Ratio hLL1:bkgd [28]: 28.5
MFI Ratio hLL1:bkgd [29]: 19.6
MFI Ratio hLL1:bkgd [30]: 36.7
MFI Ratio hLL1:bkgd [31]: 1.5
MFI Ratio hLL1:bkgd [32]: 1.3
MFI Ratio hLL1:bkgd [33]: 49.6
B4: Milatuzumab (antibody, V domains shown)
VH: QVQLQQSGSELKKPGASVKVSCKASGYTFTNYGVNWIKQAPGQGLQWMGWINPNTGEPTFDDDFKGRFAFSLDTSVSTAYLQISSLKADDTAVYFCSRSRGKNEAWFAYWGQGTLVTVSS
VL: DIQLTQSPLSLPVTLGQPASISCRSSQSLVHRNGNTYLHWFQQRPGQSPRLLIYTVSNRFSGVPDRFSGSGSGTDFTLKISRVEAEDVGVYFCSQSSHVPPTFGAGTRLEIK
